Values belong to the binder of their own block, whether it stands above or below them.
Key:
[1] = molecular target: T1, truncated OGT N567K (O-GlcNAc transferase, residues 323-1044, N567K variant) (human) (UniProt O15294)
T1 sequence: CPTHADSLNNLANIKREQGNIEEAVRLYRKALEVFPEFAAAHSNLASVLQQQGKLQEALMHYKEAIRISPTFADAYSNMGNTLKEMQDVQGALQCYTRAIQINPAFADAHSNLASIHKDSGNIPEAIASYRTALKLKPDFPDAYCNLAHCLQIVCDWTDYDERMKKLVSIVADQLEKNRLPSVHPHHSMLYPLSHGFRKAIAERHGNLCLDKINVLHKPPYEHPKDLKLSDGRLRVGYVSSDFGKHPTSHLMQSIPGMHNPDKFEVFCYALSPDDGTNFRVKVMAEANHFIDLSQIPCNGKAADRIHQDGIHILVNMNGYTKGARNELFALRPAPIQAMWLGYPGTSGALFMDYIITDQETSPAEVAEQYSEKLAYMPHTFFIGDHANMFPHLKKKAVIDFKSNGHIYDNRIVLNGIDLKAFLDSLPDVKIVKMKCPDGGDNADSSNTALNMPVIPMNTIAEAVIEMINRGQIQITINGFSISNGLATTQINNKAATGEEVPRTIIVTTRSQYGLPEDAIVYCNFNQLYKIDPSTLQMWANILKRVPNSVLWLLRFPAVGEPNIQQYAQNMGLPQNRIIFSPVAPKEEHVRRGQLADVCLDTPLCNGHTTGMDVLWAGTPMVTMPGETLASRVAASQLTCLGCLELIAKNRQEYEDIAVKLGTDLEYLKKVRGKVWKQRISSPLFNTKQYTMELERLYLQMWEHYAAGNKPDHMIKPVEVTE

[2] = molecular target: T2, truncated OGT N567K (O-GlcNAc transferase, residues 323-1044, N567K variant) (human, UniProt O15294 323-1044, N567K); experiment: crystal structure; OGT N567K (323-1044) cocrystallized with the donor analog UDP-5S-GlcNAc and acceptor peptide P2; ternary complex; molecular replacement with PDB 5C1D; settings: both partners purified
T2 construct: O-GlcNAc transferase (OGT), human, residues 323-1044, with the patient missense mutation N567K in the catalytic domain; In the crystal it also holds the donor analog UDP-5S-GlcNAc; N567K is a de novo mutation found in patients; also called N567K OGT; O-linked β-N-acetyl-D-glucosamine (O-GlcNAc) transferase N567K; source: recombinant, from Escherichia coli (expression and purification in SI …)
T2 sequence (looked up): T1 sequence

OGT glycosyltransferase activity, steady-state (Michaelis-Menten) kinetics, fluorometric assay, OGT N567K against acceptor peptide P1, compared with OGT WT [1]: 12 fold
Binder: KKVPVSRA [P1 acceptor peptide (KKVPVSRA)]

binding result [2]: binds
B1: P2 acceptor peptide (KKVAVSRA) (peptide)
peptide: KKVAVSRA
notes: OGT acceptor peptide substrate with alanine at the -2 subsite
